Measurements from publication PMC12416549 (2024).

Target: T1, TNFR1 (Homo sapiens, UniProt P19438)
T1 chain: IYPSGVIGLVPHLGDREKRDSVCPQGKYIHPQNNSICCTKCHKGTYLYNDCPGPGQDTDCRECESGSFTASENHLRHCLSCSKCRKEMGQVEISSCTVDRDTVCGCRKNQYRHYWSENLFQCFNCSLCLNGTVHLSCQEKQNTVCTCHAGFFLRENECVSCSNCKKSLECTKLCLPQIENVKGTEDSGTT
Assay: yeast display SC50

B1: K88S (designed binder)
chain: SMEEEVEKAAKEYEKKKKEAIEKHLEKLKAKDKEAAERFLKELEEAAKEYAKDEAKTMSEEEAKRRAKKYKEKVLLSELSEEEQKEISEAEEKLVRTILKYVEEAAK
- apparent Kd (screen): 0.49 nM

B2: E103C (designed binder)
chain: SMEEEVEKAAKEYEKKKKEAIEKHLEKLKAKDKEAAERFLKELEEAAKEYAKDEAKTMSEEEAKRRAKKYKEKVLLSELSEEEQKEIKEAEEKLVRTILKYVCEAAK
- apparent Kd (screen): 7.78 nM

B3: K15V (designed binder)
chain: SMEEEVEKAAKEYEVKKKEAIEKHLEKLKAKDKEAAERFLKELEEAAKEYAKDEAKTMSEEEAKRRAKKYKEKVLLSELSEEEQKEIKEAEEKLVRTILKYVEEAAK
- apparent Kd (screen): 1.05 nM

B4: V95H (designed binder)
chain: SMEEEVEKAAKEYEKKKKEAIEKHLEKLKAKDKEAAERFLKELEEAAKEYAKDEAKTMSEEEAKRRAKKYKEKVLLSELSEEEQKEIKEAEEKLHRTILKYVEEAAK
- apparent Kd (screen): 11.4 nM

B5: A36N (designed binder)
chain: SMEEEVEKAAKEYEKKKKEAIEKHLEKLKAKDKEANERFLKELEEAAKEYAKDEAKTMSEEEAKRRAKKYKEKVLLSELSEEEQKEIKEAEEKLVRTILKYVEEAAK
- apparent Kd (screen): 2.73 nM

B6: K64A (designed binder)
chain: SMEEEVEKAAKEYEKKKKEAIEKHLEKLKAKDKEAAERFLKELEEAAKEYAKDEAKTMSEEEAARRAKKYKEKVLLSELSEEEQKEIKEAEEKLVRTILKYVEEAAK
- apparent Kd (screen): 0.956 nM

B7: V74Y (designed binder)
chain: SMEEEVEKAAKEYEKKKKEAIEKHLEKLKAKDKEAAERFLKELEEAAKEYAKDEAKTMSEEEAKRRAKKYKEKYLLSELSEEEQKEIKEAEEKLVRTILKYVEEAAK
- apparent Kd (screen): 9.41 nM

B8: K85V (designed binder)
chain: SMEEEVEKAAKEYEKKKKEAIEKHLEKLKAKDKEAAERFLKELEEAAKEYAKDEAKTMSEEEAKRRAKKYKEKVLLSELSEEEQVEIKEAEEKLVRTILKYVEEAAK
- apparent Kd (screen): 1.05 nM

B9: K33N (designed binder)
chain: SMEEEVEKAAKEYEKKKKEAIEKHLEKLKAKDNEAAERFLKELEEAAKEYAKDEAKTMSEEEAKRRAKKYKEKVLLSELSEEEQKEIKEAEEKLVRTILKYVEEAAK
- apparent Kd (screen): 1.05 nM

B10: Y50R (designed binder)
chain: SMEEEVEKAAKEYEKKKKEAIEKHLEKLKAKDKEAAERFLKELEEAAKERAKDEAKTMSEEEAKRRAKKYKEKVLLSELSEEEQKEIKEAEEKLVRTILKYVEEAAK
- apparent Kd (screen): 2.25 nM

B11: E12H (designed binder)
chain: SMEEEVEKAAKHYEKKKKEAIEKHLEKLKAKDKEAAERFLKELEEAAKEYAKDEAKTMSEEEAKRRAKKYKEKVLLSELSEEEQKEIKEAEEKLVRTILKYVEEAAK
- apparent Kd (screen): 0.49 nM

B12: S80R (designed binder)
chain: SMEEEVEKAAKEYEKKKKEAIEKHLEKLKAKDKEAAERFLKELEEAAKEYAKDEAKTMSEEEAKRRAKKYKEKVLLSELREEEQKEIKEAEEKLVRTILKYVEEAAK
- apparent Kd (screen): 0.593 nM

B13: A10P (designed binder)
chain: SMEEEVEKAPKEYEKKKKEAIEKHLEKLKAKDKEAAERFLKELEEAAKEYAKDEAKTMSEEEAKRRAKKYKEKVLLSELSEEEQKEIKEAEEKLVRTILKYVEEAAK
- apparent Kd (screen): 11.4 nM

B14: E37T (designed binder)
chain: SMEEEVEKAAKEYEKKKKEAIEKHLEKLKAKDKEAATRFLKELEEAAKEYAKDEAKTMSEEEAKRRAKKYKEKVLLSELSEEEQKEIKEAEEKLVRTILKYVEEAAK
- apparent Kd (screen): 0.539 nM

B15: A105G (designed binder)
chain: SMEEEVEKAAKEYEKKKKEAIEKHLEKLKAKDKEAAERFLKELEEAAKEYAKDEAKTMSEEEAKRRAKKYKEKVLLSELSEEEQKEIKEAEEKLVRTILKYVEEGAK
- apparent Kd (screen): 0.446 nM

B16: L94D (designed binder)
chain: SMEEEVEKAAKEYEKKKKEAIEKHLEKLKAKDKEAAERFLKELEEAAKEYAKDEAKTMSEEEAKRRAKKYKEKVLLSELSEEEQKEIKEAEEKDVRTILKYVEEAAK
- apparent Kd (screen): 1.86 nM

B17: A30G (designed binder)
chain: SMEEEVEKAAKEYEKKKKEAIEKHLEKLKGKDKEAAERFLKELEEAAKEYAKDEAKTMSEEEAKRRAKKYKEKVLLSELSEEEQKEIKEAEEKLVRTILKYVEEAAK
- apparent Kd (screen): 0.956 nM

B18: K107Y (designed binder)
chain: SMEEEVEKAAKEYEKKKKEAIEKHLEKLKAKDKEAAERFLKELEEAAKEYAKDEAKTMSEEEAKRRAKKYKEKVLLSELSEEEQKEIKEAEEKLVRTILKYVEEAAY
- apparent Kd (screen): 2.73 nM

B19: S77K (designed binder)
chain: SMEEEVEKAAKEYEKKKKEAIEKHLEKLKAKDKEAAERFLKELEEAAKEYAKDEAKTMSEEEAKRRAKKYKEKVLLKELSEEEQKEIKEAEEKLVRTILKYVEEAAK
- apparent Kd (screen): 4.83 nM

B20: Y70F (designed binder)
chain: SMEEEVEKAAKEYEKKKKEAIEKHLEKLKAKDKEAAERFLKELEEAAKEYAKDEAKTMSEEEAKRRAKKFKEKVLLSELSEEEQKEIKEAEEKLVRTILKYVEEAAK
- apparent Kd (screen): 12.5 nM

B21: K27H (designed binder)
chain: SMEEEVEKAAKEYEKKKKEAIEKHLEHLKAKDKEAAERFLKELEEAAKEYAKDEAKTMSEEEAKRRAKKYKEKVLLSELSEEEQKEIKEAEEKLVRTILKYVEEAAK
- apparent Kd (screen): 0.446 nM

B22: A20K (designed binder)
chain: SMEEEVEKAAKEYEKKKKEKIEKHLEKLKAKDKEAAERFLKELEEAAKEYAKDEAKTMSEEEAKRRAKKYKEKVLLSELSEEEQKEIKEAEEKLVRTILKYVEEAAK
- apparent Kd (screen): 0.446 nM

B23: L79E (designed binder)
chain: SMEEEVEKAAKEYEKKKKEAIEKHLEKLKAKDKEAAERFLKELEEAAKEYAKDEAKTMSEEEAKRRAKKYKEKVLLSEESEEEQKEIKEAEEKLVRTILKYVEEAAK
- apparent Kd (screen): 18.3 nM

B24: T97N (designed binder)
chain: SMEEEVEKAAKEYEKKKKEAIEKHLEKLKAKDKEAAERFLKELEEAAKEYAKDEAKTMSEEEAKRRAKKYKEKVLLSELSEEEQKEIKEAEEKLVRNILKYVEEAAK
- apparent Kd (screen): 1.16 nM

B25: V95Q (designed binder)
chain: SMEEEVEKAAKEYEKKKKEAIEKHLEKLKAKDKEAAERFLKELEEAAKEYAKDEAKTMSEEEAKRRAKKYKEKVLLSELSEEEQKEIKEAEEKLQRTILKYVEEAAK
- apparent Kd (screen): 11.4 nM

B26: A9K (designed binder)
chain: SMEEEVEKKAKEYEKKKKEAIEKHLEKLKAKDKEAAERFLKELEEAAKEYAKDEAKTMSEEEAKRRAKKYKEKVLLSELSEEEQKEIKEAEEKLVRTILKYVEEAAK
- apparent Kd (screen): 0.446 nM

B27: E104A (designed binder)
chain: SMEEEVEKAAKEYEKKKKEAIEKHLEKLKAKDKEAAERFLKELEEAAKEYAKDEAKTMSEEEAKRRAKKYKEKVLLSELSEEEQKEIKEAEEKLVRTILKYVEAAAK
- apparent Kd (screen): 0.79 nM

B28: S77L (designed binder)
chain: SMEEEVEKAAKEYEKKKKEAIEKHLEKLKAKDKEAAERFLKELEEAAKEYAKDEAKTMSEEEAKRRAKKYKEKVLLLELSEEEQKEIKEAEEKLVRTILKYVEEAAK
- apparent Kd (screen): 7.07 nM

B29: A35T (designed binder)
chain: SMEEEVEKAAKEYEKKKKEAIEKHLEKLKAKDKETAERFLKELEEAAKEYAKDEAKTMSEEEAKRRAKKYKEKVLLSELSEEEQKEIKEAEEKLVRTILKYVEEAAK
- apparent Kd (screen): 0.593 nM

B30: L76Y (designed binder)
chain: SMEEEVEKAAKEYEKKKKEAIEKHLEKLKAKDKEAAERFLKELEEAAKEYAKDEAKTMSEEEAKRRAKKYKEKVLYSELSEEEQKEIKEAEEKLVRTILKYVEEAAK
- apparent Kd (screen): 2.05 nM

B31: V74S (designed binder)
chain: SMEEEVEKAAKEYEKKKKEAIEKHLEKLKAKDKEAAERFLKELEEAAKEYAKDEAKTMSEEEAKRRAKKYKEKSLLSELSEEEQKEIKEAEEKLVRTILKYVEEAAK
- apparent Kd (screen): 22.2 nM

B32: E5S (designed binder)
chain: SMEESVEKAAKEYEKKKKEAIEKHLEKLKAKDKEAAERFLKELEEAAKEYAKDEAKTMSEEEAKRRAKKYKEKVLLSELSEEEQKEIKEAEEKLVRTILKYVEEAAK
- apparent Kd (screen): 0.593 nM

B33: D32T (designed binder)
chain: SMEEEVEKAAKEYEKKKKEAIEKHLEKLKAKTKEAAERFLKELEEAAKEYAKDEAKTMSEEEAKRRAKKYKEKVLLSELSEEEQKEIKEAEEKLVRTILKYVEEAAK
- apparent Kd (screen): 1.4 nM

B34: K11P (designed binder)
chain: SMEEEVEKAAPEYEKKKKEAIEKHLEKLKAKDKEAAERFLKELEEAAKEYAKDEAKTMSEEEAKRRAKKYKEKVLLSELSEEEQKEIKEAEEKLVRTILKYVEEAAK
- apparent Kd (screen): 18.3 nM

B35: K8M (designed binder)
chain: SMEEEVEMAAKEYEKKKKEAIEKHLEKLKAKDKEAAERFLKELEEAAKEYAKDEAKTMSEEEAKRRAKKYKEKVLLSELSEEEQKEIKEAEEKLVRTILKYVEEAAK
- apparent Kd (screen): 1.05 nM
